The assay concerns the target recombinant HIV-1 RTIN (reverse transcriptase and integrase in fusion form, the Pol precursor intermediate) (HIV-1 (NL4-3)). Nature of the assay: SEC. For orientation: Size exclusion chromatography separates by hydrodynamic size, large species first.

For the substance “recombinant HIV-1 RTIN (reverse transcriptase and integrase in fusion form, the Pol precursor intermediate) (enzyme)”, the share of rRTIN in the hexamer or higher multimer came out at 80%.

These data come from paper PMC9864105.
